Measured values from patent US20250276081A1, “Mucin-Active Proteases and Methods of Use” (priority 2022, published 2025).

Columns and labels:
[1] = target: T1, cell surface mucins (CD43) on mixed K562^±HER2 cells (Homo sapiens, UniProt P16150); test: K562 mixed cell CD43 cleavage assay; type: cell-based; conditions: 1 nM, overnight
T1 construct: endogenous in cells; host or cells: K562 and K562^HER2 (HER2 retrovirally transduced; CD43 endogenous)
T1 sequence (P16150 20-400): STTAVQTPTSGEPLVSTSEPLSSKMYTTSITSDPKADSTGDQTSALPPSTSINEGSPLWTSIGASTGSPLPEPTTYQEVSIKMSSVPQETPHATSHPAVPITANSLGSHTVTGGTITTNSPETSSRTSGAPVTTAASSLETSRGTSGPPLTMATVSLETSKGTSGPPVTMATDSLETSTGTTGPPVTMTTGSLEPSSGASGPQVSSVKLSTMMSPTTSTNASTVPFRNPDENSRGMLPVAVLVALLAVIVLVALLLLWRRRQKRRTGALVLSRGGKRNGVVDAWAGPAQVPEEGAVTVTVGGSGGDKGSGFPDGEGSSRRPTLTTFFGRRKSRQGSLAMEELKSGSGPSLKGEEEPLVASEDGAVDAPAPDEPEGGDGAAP
Protocol: K562 mixed cell CD43 cleavage assay. 2.5×10^5 K562 and K562^HER2 cells were allocated per well to a 96-well ultra-low attachment round bottom plate in 150 μL of complete media. 50 μL of mucinases in PBS were added to wells and the plate was incubated (overnight unless stated otherwise) at 37° C. Cells were washed twice with cold FACS buffer with 2 mM EDTA, once with cold FACS buffer, and stained with Alexa Fluor 488 anti-human CD340 (erbB2/HER-2) antibody (24D2 clone) (BioLegend) and Alexa Fluor 647 CD43/sialophorin antibody (MEM^−59 clone) (Novus Biologicals) in FACS buffer supplemented with 0.1% benzonase on ice protected from light. Cells were washed three times with cold FACS buffer with 2 mM EDTA and stained with 1 μM Sytox AADvanced (Thermo Fisher Scientific) or 1 μM Sytox Blue in FACS buffer with 2 mM EDTA for 5 min on ice prior to analysis using a BD Accuri C6 plus or MACSQuant Analyzer 10 Flow Cytometer (Miltenyi Biotec). Samples were compensated using single-stained controls in FlowJo v. 10.0. Unstained and PBS-treated samples were used to define 0% and 100% cell surface CD43, respectively, and each sample was normalized to percent CD43 within each replicate. Using GraphPad Prism 9, replicates were fitted to inhibitor concentration vs normalized response.

[2] = target: T2, cell surface MUC1 on HeLa cells (Homo sapiens, UniProt P15941); test: In cellulo MUC1 cleavage activity assay; type: cell-based
T2 construct: subjected to flow cytometry for cell surface MUC1; endogenous in cells; host or cells: HeLa
T2 sequence (P15941 24-1255): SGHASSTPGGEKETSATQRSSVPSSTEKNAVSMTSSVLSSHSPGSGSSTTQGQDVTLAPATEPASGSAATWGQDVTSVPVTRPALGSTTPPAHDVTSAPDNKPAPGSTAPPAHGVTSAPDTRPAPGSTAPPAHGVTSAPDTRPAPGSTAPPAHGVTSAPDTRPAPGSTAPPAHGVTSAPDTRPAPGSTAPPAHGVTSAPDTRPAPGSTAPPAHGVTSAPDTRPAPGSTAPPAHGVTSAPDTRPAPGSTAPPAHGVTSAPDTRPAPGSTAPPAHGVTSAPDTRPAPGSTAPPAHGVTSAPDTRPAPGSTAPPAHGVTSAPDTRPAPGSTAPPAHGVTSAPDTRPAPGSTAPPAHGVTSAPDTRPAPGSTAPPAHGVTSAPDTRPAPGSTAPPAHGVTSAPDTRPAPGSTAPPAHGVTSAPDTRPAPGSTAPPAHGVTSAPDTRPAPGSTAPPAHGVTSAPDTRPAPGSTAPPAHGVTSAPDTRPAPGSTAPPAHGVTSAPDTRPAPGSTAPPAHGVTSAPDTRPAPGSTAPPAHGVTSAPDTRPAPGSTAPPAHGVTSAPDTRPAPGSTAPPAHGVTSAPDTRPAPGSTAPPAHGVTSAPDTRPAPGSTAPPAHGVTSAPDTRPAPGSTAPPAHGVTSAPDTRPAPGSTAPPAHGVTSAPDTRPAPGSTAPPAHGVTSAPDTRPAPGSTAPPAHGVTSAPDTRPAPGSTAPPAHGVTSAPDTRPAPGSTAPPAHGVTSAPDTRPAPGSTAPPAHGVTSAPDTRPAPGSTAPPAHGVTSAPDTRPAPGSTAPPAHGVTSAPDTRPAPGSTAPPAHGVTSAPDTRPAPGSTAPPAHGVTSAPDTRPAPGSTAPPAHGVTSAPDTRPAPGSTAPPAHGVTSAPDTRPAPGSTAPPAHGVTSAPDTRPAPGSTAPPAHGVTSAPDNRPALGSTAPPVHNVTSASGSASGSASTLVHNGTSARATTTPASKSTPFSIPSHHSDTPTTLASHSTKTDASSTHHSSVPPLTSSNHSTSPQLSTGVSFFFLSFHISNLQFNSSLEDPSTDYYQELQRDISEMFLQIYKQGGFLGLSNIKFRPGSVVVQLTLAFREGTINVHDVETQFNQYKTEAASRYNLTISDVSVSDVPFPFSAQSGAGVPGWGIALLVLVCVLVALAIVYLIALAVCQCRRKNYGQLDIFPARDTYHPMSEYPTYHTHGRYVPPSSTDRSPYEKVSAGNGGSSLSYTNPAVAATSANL
Protocol: Combinations of domain deletions and single point mutations yielded a total of eleven mutants for characterization, with expression yields ranging from 20-100 mg/L (Methods and FIG. 15B). In vitro activity against recombinant mucin substrates was quantified by densitometry following SDS-PAGE (FIG. 2b-c and FIG. 15C). […] To determine effective dissociation constants (Kd) of the mutants, cells were treated with the same concentrations of enzymes for 30 mins at 4° C. in the presence of the metal chelator and metalloprotease inhibitor EDTA, to prevent enzyme activity. In the latter case, binding was quantified via interaction of an anti-His tag antibody with the His-tagged mutants (FIG. 2d,g-h and FIG. 15f-g).
In cellulo MUC1 cleavage activity assay. Hela cells resuspended at 4.5-5.0×10^5 cells in 150 μL of complete media were allocated per well to a 96-well ultra-low attachment round bottom plate (Corning). 50 μL of the different StcE mutants in PBS were added to the wells, and the plate was incubated at 37° C. for 1 h. […] For data analysis, the Alexa Fluor 647 mean fluorescence intensity of unstained and PBS-treated samples were used to define 0% and 100% cell surface MUC1, respectively, and each sample was normalized to percent MUC1 within each replicate. […]

[3] = In vivo toxicity of StcE (maximum tolerated dose, necropsy); parameters: species or system mouse
Protocol: In vivo toxicity studies. 10-week-old C57BL/6 mice (bred in-house) were injected with PBS or StcE (0.15 mg/kg or 15 mg/kg) via intravenous injection. 9-week-old female BALB/cJ mice (Jackson Labs) were injected with PBS or 10 mg/kg αHER2-eStcE via intraperitoneal injection. Mice were submitted to the Animal Diagnostic Lab at Stanford University for necropsy and complete blood count (CBC) analyses 3 h post injection.

[4] = tested on: MCF10A cells expressing MUC1 ectodomain; test: MCF10A^MUC1 suspension survival assay; type: cell-based
Protocol: MCF10A^MUC1 suspension survival assay. MCF10A cells expressing a cytoplasmic truncation 5 of MUC1 (MUC1ΔCT, also referred to as MUC1 ectodomain) were used to limit any possible cytoplasmic signaling^1. MUC1ΔCT was induced with 200 ng/ml doxycycline for 24 h. Uninduced and induced cells were seeded at 3×10^5 cells/well in a 24-well ultra-low attachment plate (Corning) in 0.75 mL of complete media. 200 ng/mL doxycycline and 10 nM StcE were added as appropriate. The plate was incubated at 37° C., 5% CO2, 125 rpm. At t=0, 24, 48, and 72 h, cells were spun down at 350×g for 5 min, resuspended in 200 μL of phosphate-buffered saline (PBS) with 0.1% benzonase (Sigma-Aldrich), and incubated at room temperature for 15 min. Cells were then resuspended in 200 μL of enzyme-free cell dissociation buffer (Thermo Fisher Scientific) and stained with 100 nM Calcein AM (Thermo Fisher Scientific) and 5 nM Sytox Red Dead Cell Stain (Thermo Fisher Scientific) for 20 min at 4° C., prior to analysis using a BD Accuri C6 plus. Videos of MCF10A^MUC1 cells freshly seeded on standard tissue culture plates (Corning) and treated with and without 1 nM StcE were generated with images taken at 30 min intervals for 18 h using an Incucyte. The Incucyte was set to 37° C. and 5% CO2, and cells were incubated in complete media with 200 ng/ml doxycycline.

Substance: StcE: secreted protease of C1 esterase inhibitor, zinc metalloprotease pan mucinase from E. coli O157:H7; SEQ ID NO:1
- Removal of cell surface mucins on HER2- cells [1]: complete removal
- Removal of cell surface mucins on HER2^+ cells [1]: complete removal
- Concentration at which the enzyme is active [2]: single digit nanomolar
- Necropsy and CBC findings ([3]; 3 hours post injection of 15 mg/kg StcE I.V.): hemorrhages underneath the skull, ecchymoses throughout the gastrointestinal tract, neutrophil accumulation in the lungs, and platelet depletion
- Maximum tolerated dose ([3]; Balb/c and C57BL/6 mice): 0.25 mg/kg
- Toxicity above the maximum tolerated dose ([3]; doses higher than 0.25 mg/kg): systemic toxicity
- Viability of MUC1-overexpressing cells under anchorage-free conditions ([4]; 10 nM StcE, ultralow attachment plates, over 72 h): rapid cell death
- Toxicity to MUC1-expressing cells in standard tissue culture plates ([4]; nanomolar doses (1 nM StcE)): low toxicity
